# From patent US7498127 (dated 2009)
# B1: PLZF protein derivative consisting only of the BTB region (other, UniProt Q05516 1-132, looked up)
# chain: MDLTKMGMIQLQNPSHPTGLLCKANQMRLAGTLCDVVIMVDSQEFHAHRTVLACTSKMFEILFHRNSQHYTLDFLSPKTFQQILEYAYTATLQAKAEDLDDLLYAAEILEIEYLEEQCLKMLETIQASDDND
# notes: domain: BTB region; also called FLAG-tagged PLZF protein derivative 6); not shown: FLAG synthetic octapeptide tag (Sigma-Aldrich)
# B2: Bcl-6 protein derivative consisting only of a region of Zn1 to Zn4 (other, UniProt P41182 518-624, looked up, not shown: small tags and cut ends)
# chain: FFCNECDCRFSEEASLKRHTLQTHSDKPYKCDRCQASFRYKGNLASHKTVHTGEKPYRCNICGAQFNRPANLKTHTRIHSGEKPYKCETCGARFVQVAHLRAHVLIH
# notes: domain: Zn1 to Zn4; also called Bcl-6 protein derivative 8)
# B3: PLZF protein derivative consisting only of a region of Zn6 to Zn7 (other, UniProt Q05516 546-596, looked up)
# chain: YECEFCGSCFRDESTLKSHKRIHTGEKPYECNGCGKKFSLKHQLETHYRVH
# notes: domain: Zn6 to Zn7; also called FLAG-tagged PLZF protein derivative 7); not shown: FLAG synthetic octapeptide tag (Sigma-Aldrich)
# How the values were obtained:
# [1] = biological target: T1, GST binding HB-EGF remaining fragment (UniProt P08515 1-218 = GST; Q99075 185-208); experiment: GST pull-down, anti-FLAG immunoblot
# T1 construct: also called remaining fragments of HB-EGF
# T1 sequence (P08515 1-218, tags or fused parts left off): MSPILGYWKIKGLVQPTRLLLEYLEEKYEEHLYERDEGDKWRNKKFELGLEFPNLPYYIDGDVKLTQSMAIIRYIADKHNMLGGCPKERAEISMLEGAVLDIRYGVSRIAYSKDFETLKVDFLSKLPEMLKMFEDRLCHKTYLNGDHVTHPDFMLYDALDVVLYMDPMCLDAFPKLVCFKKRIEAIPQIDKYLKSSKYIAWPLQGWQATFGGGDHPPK
# Method: Test Method (1) In order to specify a region of PLZF protein that interacts with a remaining fragment, GST pull-down assay was performed.
# (2) GST, GST binding HB-LGF remaining fragments that were expressed and isolated with *E. coli* BL21 strain according to the GST pull-down assay standard protocol were used. The fragments were bound to Glutathione Sepharose beads, and then cell lysates containing various FLAG-tagged PLZF protein derivatives were incubated with 20 µl of the beads at 4° C. for two hours. After washing with water, the bound protein was analyzed by immunoblotting using anti-FLAG antibody (referring to the peptide sold under the trademark FLAG by Sigma Aldrich Co.).
# [2] = biological target: T1, GST binding HB-EGF remaining fragment; experiment: GST pull-down, same method as Test Example 1
Binder,binding result [1],binding result [2]
B1,no binding,–
B2,–,no binding
B3,no binding,–
